From US20230134580A1 (SHANGHAI HENLIUS BIOTECH, published 2023) come the findings set out here.

The target in test [1] is T1, human TIGIT (T cell immunoreceptor with Ig and ITIM domains), expressed on cells (human, UniProt Q495A1 22-244).
T1 sequence: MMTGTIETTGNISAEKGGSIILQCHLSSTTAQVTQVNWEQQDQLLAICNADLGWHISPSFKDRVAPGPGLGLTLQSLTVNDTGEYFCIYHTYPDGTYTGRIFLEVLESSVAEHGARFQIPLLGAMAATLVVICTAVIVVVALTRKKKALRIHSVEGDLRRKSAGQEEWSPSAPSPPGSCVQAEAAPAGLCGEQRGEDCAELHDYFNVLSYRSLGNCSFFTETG
As to the kind of experiment: cell-based or functional assay.

For test [2], the target named is T2, recombinant human TIGIT extracellular domain (ECD) (human, UniProt Q495A1 22-138).
T2 construct: Bought protein (Arco Bio); also called h-TIGIT ECD; h-TIGIT
T2 sequence: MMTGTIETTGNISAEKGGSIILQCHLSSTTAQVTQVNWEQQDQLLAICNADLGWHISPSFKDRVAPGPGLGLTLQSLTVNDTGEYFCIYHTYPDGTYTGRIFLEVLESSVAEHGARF
As to the kind of experiment: blocking ELISA, VHH clone against PVR binding to h-TIGIT. A general note: ELISA stands for enzyme-linked immunosorbent assay.

The target in test [3] is T1, human TIGIT (T cell immunoreceptor with …). Description: cell-based or functional assay. The source holds these as a separate data set.
The target is the same in test [4]. As to the kind of experiment: flow cytometry, whole cell binding to Jurkat cells stably expressing human TIGIT; Alexa Fluor 488 anti-human IgG Fc secondary antibody. From the text: FIGS. 1A-1C depict whole cell binding of representative VHH bivalent antibodies to human TIGIT determined by flowcytometry assays. […] Y axis represents Mean Fluorescence Intensity of AlexaFlour 488. X axis represents antibody concentrations in nanomolar. […] FIG. 1C is a schematic of the structure of a TIGIT VHH bivalent antibody.
Jurkat cells stably expressing human TIGIT and NFAT reporter gene were established. Specifically, Jurkat cells were transfected with human TIGIT expression vector by electroporation, and cells stably expressing human TIGIT were selected by 1 μg/ml puromycin during cell culture. Representative antibody clones were incubated at different concentrations with h-TIGIT stably expressing Jurkat cells (0.2×10^6/ml) in 100 μl/well in 96-well plate in FACS buffer (PBS with 1.5% FBS) for 30 min. After washing, Alexaflour 488 conjugated anti-human IgG Fc secondary antibody (Alexa Fluor® 488 AffiniPure Goat Anti-Human IgG, Fcγ fragment specific, Jackson labs, 1:500 dilution) was added and incubated for 30 min. After washing, mean fluorescence intensity was measured using CytoFlex (Beckman Coulter) by gating live cell population. Binding affinity was calculated using GraphPad Prism.
(In flow cytometry, cells or beads pass a laser one at a time.)

For test [5] the target is unchanged. Description: flow cytometry, whole cell binding to Jurkat cells stably expressing human TIGIT; anti-human IgG Fc AlexaFluor488. The method, then: Y axis is values of Mean Fluorescence Intensity of AlexaFlour 488. X axis is values of antibody concentrations in nanomolar.
The binding affinities of the humanized bivalent antibodies to human TIGIT were determined by whole cell binding to h-TIGIT stably expressed on Jurkat cells. Briefly, antibodies were incubated with h-TIGIT transfected Jurkat cells (0.2×10⁶/well in 100 μl) for 30 min in FACS buffer. The cells were washed once, then incubated with anti-human IgG Fc AlexaFluor488 (1:500).

The target is the same in test [6]. As to the kind of experiment: cell-based or functional assay. This is another data set of the same source.
The target is the same in test [7]. As to the kind of experiment: cell-based or functional assay. This is another data set of the same source.

Where two headings read alike, the source gives them in different places.

B1: 3G6 bivalent VHH antibody (Fc fusion)
VHH: QVQLVESGGGLVQAGGSLSLSCAASGSIFGISVMGWYRQAPGEQRDLVATLTRAGLTTYGDSVKGRFSISRDSAKNTVYLQMNNLKPEDTAVYYCHANIMESAASTFGRYWGQGTQVTVSS
As for B1, in test [1], the “EC50 (read off the curve), NFAT luciferase reporter, TIGIT blockade” value (“EC50 (read off the curve) … TIGIT blockade” below) was approximately 3000 pM.

B2: 3G6 VHH (VHH)
VHH: QVQLVESGGGLVQAGGSLSLSCAASGSIFGISVMGWYRQAPGEQRDLVATLTRAGLTTYGDSVKGRFSISRDSAKNTVYLQMNNLKPEDTAVYYCHANIMESAASTFGRYWGQGTQVTVSS
notes: Tested as VHH in SS320 culture supernatant
On to B2, for which the “% inhibition of PVR binding to h-TIGIT” value in test [2] is more than 90%.

B3: 2B10 bivalent VHH antibody (Fc fusion)
VHH: QVKLEESGGGLVQTGDSLRLSCAASSRIFRRYAMGWFRQAPGKEREFVAAITWSGASTTYTDSVKGRFTISRDSAENTTYLQMTSLRPEDTAVYYCAADPWGSVIVGTAEYEYWGQGTLVTVSS
On to B3, for which, in test [1], the “EC50 (read off the curve) … TIGIT blockade” value was approximately 700 pM.

B4: 2B10 VHH (VHH)
VHH: QVKLEESGGGLVQTGDSLRLSCAASSRIFRRYAMGWFRQAPGKEREFVAAITWSGASTTYTDSVKGRFTISRDSAENTTYLQMTSLRPEDTAVYYCAADPWGSVIVGTAEYEYWGQGTLVTVSS
notes: as for B2
In the case of B4, the “% inhibition of PVR binding to h-TIGIT” value in test [2] is more than 90%.

B5: 1C12 VHH (VHH)
VHH: QVQLVESGGGLVQTGDSLRLSCAASSRIFSRYGMGWFRQAPGKEREFVAAISWNGASTTYTDSVKGRFTISRDSAENTTYLQINSLRPEDTAVYYCAADPWGAVKLGTAEYEYWGQGTQVTVSS
notes: as for B2
As for B5, the “% inhibition of PVR binding to h-TIGIT” value in test [2] was more than 90%.

B6: 2B7 bivalent VHH antibody (Fc fusion)
VHH: QVQLVESGGGLVQAGGSLRLACAASGRTFSSYPMGWFRQGPGKERESVAAISSDGRFTYYAASVKGRFTISKDNAKSAAFLQMNSLKPEDTAVYYCAARDSGSGYYSRAQWYDYWGQGTQVTVSS
notes: Bivalent VHH-CH2-CH3, ExpiCHO, Protein A purified
By EC50 (read off the curve) is commonly meant the concentration needed to bring the measured effect to its halfway point. A higher EC50 (read off the curve) goes with a less potent agent. B6: the “EC50 (read off the curve) … TIGIT blockade” value in test [3] is approximately 1000 pM. Further, the “EC50 (read off the curve)” value in test [4] was approximately 200 pM.

B7: 13H11 VHH (VHH)
VHH: QVQLVESGGGLVQAGGSLRLSCAASGLTFSMYAMGWFRQGPGKERESVAAISSDGRFTYYAASVKGRFTISKDNAKSAAFLQMNSLKPEDTAVYYCAARDSGSGYYSRAQWYDYWGQGTQVTVSS
notes: as for B2
With B7, the “% inhibition of PVR binding to h-TIGIT” value in test [2] was more than 90%.

B8: 2B7 VHH (VHH)
VHH: QVQLVESGGGLVQAGGSLRLACAASGRTFSSYPMGWFRQGPGKERESVAAISSDGRFTYYAASVKGRFTISKDNAKSAAFLQMNSLKPEDTAVYYCAARDSGSGYYSRAQWYDYWGQGTQVTVSS
notes: as for B2
As for B8, the “% inhibition of PVR binding to h-TIGIT” value in test [2] was more than 90%.

B9: 1G1 VHH (VHH)
VHH: QVQLVESGGGLVQAGDSLRLSCVASGPSFSSYPMGWFRQGPGKERESVAAISSDGRFTYYAASVKGRFTISKDNAKSAAFLQMNSLKPEDTAVYYCAARDSGSGYYSRAQWYDYWGQGTLVTVSS
notes: as for B2
Consider B9, for which, in test [2], the “% inhibition of PVR binding to h-TIGIT” value is more than 90%.

B10: 1G1-chimeric (1G1 bivalent VHH antibody) (Fc fusion)
chain: QVQLVESGGGLVQAGDSLRLSCVASGPSFSSYPMGWFRQGPGKERESVAAISSDGRFTYYAASVKGRFTISKDNAKSAAFLQMNSLKPEDTAVYYCAARDSGSGYYSRAQWYDYWGQGTLVTVSS
notes: Llama VHH of 1G1 with human IgG1 CH2 and CH3 domains; also called chimeric clone; not shown: human IgG1 CH2 and CH3 domains
As for B10, the figures for the “EC50 (read off the curve) … TIGIT blockade” value in test [3] and in test [6] were approximately 1000 pM and approximately 700 pM, respectively. Moreover, the figures for the concentration giving a half-maximal response (EC50 (read off the curve)) in test [5] and in test [4] were approximately 80 pM and approximately 100 pM, respectively.

B11: 1G1-F-G-ERES humanized bivalent antibody (Fc fusion)
VHH: QVQLVESGGGVVQPGRSLRLSCAASGPSFSSYPMGWFRQGPGKERESVAAISSDGRFTYYADSVKGRFTISRDNSKNTLYLQMNSLRAEDTAVYYCAARDSGSGYYSRAQWYDYWGQGTLVTVSS
notes: Humanized on germline IGHV-3-30*01
As for B11, the “EC50 (read off the curve)” value in test [5] was approximately 200 pM. In addition, the “EC50 (read off the curve) … TIGIT blockade” value in test [6] is 1000 to 1600 pM.

B12: 3F10 bivalent VHH antibody (Fc fusion)
VHH: QVQLVESGGGLVQAGGSLRLSCASSEHTFSNFPMGWFRQAPGKERNVVAAIDSSGRLTYYADSVKGRFTISKDNAKSTVYLQMNSLKSEDTARYYCAARTGGVGYYSRSSFYNYWGQGTLVTVSS
On to B12, for which the “EC50 (read off the curve) … TIGIT blockade” value in test [1] is approximately 300 pM.

B13: 3F10 VHH (VHH)
VHH: QVQLVESGGGLVQAGGSLRLSCASSEHTFSNFPMGWFRQAPGKERNVVAAIDSSGRLTYYADSVKGRFTISKDNAKSTVYLQMNSLKSEDTARYYCAARTGGVGYYSRSSFYNYWGQGTLVTVSS
notes: as for B2
Turning to B13, the “% inhibition of PVR binding to h-TIGIT” value in test [2] is more than 90%.

B14: 3G7 bivalent VHH antibody (Fc fusion)
VHH: QVQLVESGGGLVQAGDSLRLSCEASGRTLSTYTMGWFRRAPGKEREFVGLAWPSPSTYVVDSVKGRFTISRDNAKNTIYLQMNSLKPEDTAIYYCAADYKSLTQSWLNAALDYWGQGTQVTVSS
notes: as for B6
As for B14, in test [4], the concentration for a half-maximal effect (EC50 (read off the curve)) was approximately 300 pM. Moreover, in test [1], the “EC50 (read off the curve) … TIGIT blockade” value is approximately 1000 pM.

B15: 3G7 VHH (VHH)
VHH: QVQLVESGGGLVQAGDSLRLSCEASGRTLSTYTMGWFRRAPGKEREFVGLAWPSPSTYVVDSVKGRFTISRDNAKNTIYLQMNSLKPEDTAIYYCAADYKSLTQSWLNAALDYWGQGTQVTVSS
notes: as for B2
As to B15, the “% inhibition of PVR binding to h-TIGIT” value in test [2] was more than 90%.

B16: 15A5 VHH (VHH)
VHH: QVQLVESGGGLVQAGGSLRLSCAASERTFSSFAMGWFRQAPGKEREVVAAIDPSGRYIYYKDSVKGRFTMSRDNAKSTVYLQMNSLKPDDTARYYCAARIRGEGYYTRSSFYHYWGQGTQVTVSS
notes: as for B2
Regarding B16, the “% inhibition of PVR binding to h-TIGIT” value in test [2] is more than 90%.

B17: 1C12-EREF humanized bivalent antibody (Fc fusion)
VHH: QVQLVESGGGVVQPGRSLRLSCAASSRIFSRYGMGWFRQAPGKEREFVAAISWNGASTTYTDSVKGRFTISRDNSKNTLYLQMNSLRAEDTAVYYCAADPWGAVKLGTAEYEYWGQGTQVTVSS
As to B17, in test [7], the “EC50 (read off the curve) … TIGIT blockade” value was approximately 2000 pM.

B18: 1C12-chimeric (1C12 bivalent VHH antibody) (Fc fusion, not shown: small tags and cut ends)
chain: QVQLVESGGGLVQTGDSLRLSCAASSRIFSRYGMGWFRQAPGKEREFVAAISWNGASTTYTDSVKGRFTISRDSAENTTYLQINSLRPEDTAVYYCAADPWGAVKLGTAEYEYWGQGTQVTVSS
Take B18: the results for the “EC50 (read off the curve) … TIGIT blockade” value in test [3], in test [7] and in test [6] were approximately 1000 pM, approximately 700 pM and approximately 800 pM, respectively.

B19: 1C12-GLEW humanized bivalent antibody (Fc fusion)
VHH: QVQLVESGGGVVQPGRSLRLSCAASSRIFSRYGMGWFRQAPGKGLEWVAAISWNGASTTYTDSVKGRFTISRDNSKNTLYLQMNSLRAEDTAVYYCAADPWGAVKLGTAEYEYWGQGTQVTVSS
As for B19, the “EC50 (read off the curve) … TIGIT blockade” value in test [7] was approximately 2000 pM.

B20: 1C12-EREW humanized bivalent antibody (Fc fusion)
VHH: QVQLVESGGGVVQPGRSLRLSCAASSRIFSRYGMGWFRQAPGKEREWVAAISWNGASTTYTDSVKGRFTISRDNSKNTLYLQMNSLRAEDTAVYYCAADPWGAVKLGTAEYEYWGQGTQVTVSS
B20: the “EC50 (read off the curve) … TIGIT blockade” value in test [7] was approximately 3000 pM.
